Experimental data published in the nanobody polyreactivity screen of Harvey et al. (2022).

Test: yeast display, Sf9 membrane polyspecificity reagent, FACS + sequencing; frameworks hold sequencing errors
Summary of the method: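 Using colony PCR, genes from sorted yeast display clones were amplified, then sequenced on MiSeq at 2 × 250 and filtered by CDR length. The clones had been stained with 10% biotinylated, detergent-solubilized Sf9 membrane reagent for 1 hour at 4 °C and sorted by FACS into low and high (top ~1%) gates on anti-HA and streptavidin fluorescence. Polyreactivity labels come from the gate of origin.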

Sequence	polyreactivity (PSR sort gate)
QVQLVESGGGLDQAGGSLRLSCAASGGIFVGYAMGWYRQSPGKERELVASISSGGSTKYADSVKGRFTISRDNAKNTVYLQMNSLKPEDTAVYYCAATDTEGIDARYASVPTSYDYWGQGTQVTVSS	low polyreactivity
QVQLVESGGGLDQAGGSLRLSCAASGIIFVKYTMGWYIQAPGKERELDAAISRSGGSTYYADSVKGRFTISRDNAKYTVYLQMNSLKPEDTAVYYCNAGARKVYPGPMDYWGQGTQVTVSS	high polyreactivity
QVQLVESGGGLDQAGGSLRLSCAASGITFRWYAMGWYRQAPGKERELVAAISSGGSTRYADSVKGRFTISRDNAKNTVYLQMNSLKPEDTAVYYCAKRYYGRGYYYWGQGTQVTVSS	high polyreactivity
QVQLVESGGGLDQAGGSLRLSCAASGLIFYDKMGWYRQAPRKERELVAAISSSCGSTSYADSVKGRFTISRDNAKHTVYLQMNSLKPEDTAVYYCAADSYPAYLGFVGFDYWGQGTQVTVSS	low polyreactivity
QVQLVESGGGLDQAGGSLRLSCAASGLTFRPYAMGGYRQAPWKERELDAGISGGGGRTYYADSVKGRFTISRDNAKNTVYFQMNSLKPEDTAVYYCATPSAYRYPYYYDYEYWGQGTQVTVSS	low polyreactivity
QVQLVESGGGLDQAGGSLRLSCAASGNIFYGNAMGWSRQAPGKERELVAGITSGGSTNYADSVKGRFTISRDTAKNTVYLQMTSLKPEDTAVYYCNATSSGSIFGYEYWGQGTQVTVSS	low polyreactivity
QVQLVESGGGLDQAGGSLRLSCAASGRIFFGNVMGWYRQATGKDSELVAAITKRVGRTYYADSVKGRFTISRDNAKNTVYLQMNSLKPEDTAVYYCNAVTPLSYCRAAPLEMDYWGQGTQVTVSS	high polyreactivity
QVQLVESGGGLDQAGGSLRLSCAASGRIFGYYAMGWYRLAPGKERELVAGIRSVGSTNYADSVKGRFTISRDNAKNTVYLQMNSLKPEDTAVNYCASRLWHLSYAGQGGDYWGQGTQVTVSS	low polyreactivity
QVQLVESGGGLDQAGGSLRLSCAASGRIFHVNVMGGYRQAPGKERELVAAISKSGGSTYYADSVKGRFTISRDNAKNTVYLQMNSLKPEDTAVYYCAAVRDSARYYYWGQGTHVTVSS	high polyreactivity
QVQLVESGGGLDQAGGSLRLSCAASGRIFNKYAMGWYRQAPGKERELVAAITRSGTRTFYADSVKGRFTISRDNAKNTVYLQMNSLKPEDTAVYYCNRDQYPFTKMDYWGQGTQVTVSS	high polyreactivity
QVQLVESGGGLDQAGGSLRLSCAASGRIFRYYTMGWYRQAPGKERELVAAISTSDDSTNYADSVKGRFTISRDNAKNTVYLQMNSLKPEDTAVYYCAADQSRVGSYQDYDYWGQGTQVTVSS	low polyreactivity
QVQLVESGGGLDQAGGSLRLSCAASGRIFSFNAMGWYRQAPGKERELVAAISWSTGSTFYADSVKGRFTISRDNAKNTVYLQMNSLKPEDTAVYYCAREYYYRRGFFLRGYWGQGTQVTVSS	high polyreactivity
QVQLVESGGGLDQAGGSLRLSCAASGRIFSYYAMGWYRQAPGKERELVAVISRRGDNTYYADSVKGRFTISRDNAKKTVYFQMNSLKPEDTAVYYCAARFGYLTFYSSGYYWGQGTQVTVSS	high polyreactivity
QVQLVESGGGLDQAGGSLRLSCAASGRIFVYNAMGWSRQAPGKARELVATITFSSSNTYYADSVKGRFTISRENAKNTVYLQMNSLKPEDTAVYYCYRDYVYARDYGNFDYWGQGTQVTVSS	low polyreactivity
QVQLVESGGGLDQAGGSLRLSCAASGRTFARYDMGWYRQATGKERELVAGINGDGGSTNYADSVKGRFTISRDNSKNTVYLQMNSLKPEDTAVYYCNVDQEDRKLHVSIKQLSDHWGQGTQVTVSS	low polyreactivity
QVQLVESGGGLDQAGGSLRLSCAASGRTFGRYAMGWYRQAPGKERELVAAITRSGSSTYYADSVKGRFTISRDNAKNTVYLQMNSLKPEDTAVYYCAAGPRPRPSDYWGQGTQVTVSS	high polyreactivity
QVQLVESGGGLDQAGGSLRLSCAASGRTFGYNAMGWYRQAPGKERELVAAINWSGASTYYADSVKGRFTISRDNAKNTVYLQMNSLKPEDTAVYYCAARRKRVSFFPEYDYWGQGTQVTVSS	low polyreactivity
QVQLVESGGGLDQAGGSLRLSCAASGRTFGYYTMGWYRQAPWKERELVARINYIGSSTYYADSVKGRFTISRDNAKNTVYLQLNSLKREDTAVYYCNADTARGRSGVRRYYWGQGTQVTVSS	high polyreactivity
QVQLVESGGGLDQAGGSLRLSCAASGRTFYVYGMGWSRQAPGKERELVAAIRSSGGSTYADSVKGRFTISRDNAKKTVYLQMNSLKPEDTAVDYCAADRRYAESGYYWGQGTQVTVSS	high polyreactivity
QVQLVESGGGLDQAGGSLRLSCAASGRTNAPYAMGWYRPAPGKERELVAAISGGGSTNYADSVKGRFTISRDNAKNSVYLQMNSLKPEDTAVYSCAADQYHGVGINFRSDYDYWGQGTQVTVSS	low polyreactivity

Sequence	polyreactivity (PSR sort gate)
QVQLVESGGGLDQAGGSLRLSCAASGRTSKTYAMGWYRQAPGKERELVATIDRSGDGTYYADSVKGRFTISRDNAKNTVYLQMNSLKPEDTAVYYCNAVTSSFYNRDSDYWGQGTQVSVSS	high polyreactivity
QVQLVESGGGLDQAGGSLRLSCAASGRTYYLYAMGWYRQAPGKERELVAAITFNGGSTYYADSVKGRFTISRDNGKNTVYLQMNSLKPEDTAVDYCAGRLSKRSGYYYWGQGTQVTVSS	high polyreactivity
QVQLVESGGGLDQAGGSLRLSCAASGSIFDDYAMGWYRQAPGKERELVAAISWSGGRTYYADSVKGRFTISRDNAKNTVYLQMNSLKPEDTAVYYCAATTGVRSRRYYYWGQGTQVTVSS	low polyreactivity
QVQLVESGGGLDQAGGSLRLSCAASGSIFDRYAKGWYRQAPGTERELVASITWRATSTYYADSVKGRFTISRDNAKNTVYLKMNRLKPEETAVYYCAAAIAFGYRGTVAKYGYWGQGTQVTVSS	low polyreactivity
QVQLVESGGGLDQAGGSLRLSCAASGSIFETYVMGWYRQAPGKERELVAAINSGGSTYYADSVKGRFTISRDNAKNTVYLQMNSLKPEDTAVYYFAADSPYGYYEGDYWGQGTQVTVSS	low polyreactivity
QVQLVESGGGLDQAGGSLRLSCAASGSIFTYNVMGWYRQAPGKERELVAAISWDGDSTYYADSVKGRFTISRDNAMKTVYLQMNSLKAEDTAVYYCAADVHEKFQYDYWGQGNQVTVSS	high polyreactivity
QVQLVESGGGLDQAGGSLRLSCAASGSIFYPYAMGWYRQAPGKERELVASNSSGGSTYYADSVKGRFTISRDNAKNTVYLQMNSLKPEDTAVYYCARQDYKRFYRYRFGNLYDSWGQGTQVTVSS	high polyreactivity
QVQLVESGGGLDQAGGSLRLSCAASGSIIYWYAKGWYRQAPGKERELVADISRGGITNYADSVKGRFTISRDNEKNTVYLQMNSLKPEDTAFYYCAKTHYGVQRLDSWGQGTQVTVSS	low polyreactivity
QVQLVESGGGLDQAGGSLRLSCAASGSISLNAMGWYRQGPGKEREFVAVITWRVGDTYYADSVKGRITISRDNAKNTVYLQLNSRKPEDSAVYYCAADDLYYQGIYRGSEFDYWGQGTQVTVSS	low polyreactivity
QVQLVESGGGLDQAGGSLRLSCAASGSTFLTNAMGGYRQAPGKEMELVAVISLISGPTYYADSVKVRFTISRDNAKNTVYLQMNRLKPEDTAVYYSATDPYWNSPYVKYDYWGQGTQVTVSS	high polyreactivity
QVQLVESGGGLDQAGGSLRLSCAASGSTFRNNAMGCYRQAPGKEREFVAAISRRGGSTYADSVKGRFTISRDNAKITVYLQMNSLKPEDTAVYFCAVRPSRILTGGRMDYWGQGTQVTVSS	high polyreactivity
QVQLVESGGGLDQAGGSLRLSCAASGSTFRSYAMGWYRQAPGKERELVAVISSGDSTYYADSVKGRFTISRDNAKNTVYLQMNSLKQEDTAVYYCAADSYVLGRWYGYWGQGTQVTVSS	low polyreactivity
QVQLVESGGGLDQAGGSLRLSCAASGSTFWVNTMGWYRQAPGKERELVAGITSNGGSTSYADSVKGRFTISRDNAKNSVYLQMNSLKREDTAVYYCNADTYPDYWAYLYDYWGQGTQVTVSS	low polyreactivity
QVQLVESGGGLDQAGGSLRLSCAASGSTFYAYTMGWYRQAPGKERELVARISGRGGSTYYADSVKGRFTISRDNAKNTVFLQMYSLKPEDTAVYFCASRVYGSYRGIQYGYWGQGTQETVSS	high polyreactivity
QVQLVESGGGLDQAGGSLRLSCAASGSTFYLYAMGWYRQAPGKERELVAAISSGGRTNYADSVKGRFTISRDNAKNTVYLQMNSLKPEDTAVYYCAARIQWPTWSLYYYWGQGTQVTVSS	high polyreactivity
QVQLVESGGGLDQAGGSLRLSCAASGSTFYYYAMGWYRQAPGKERELVATISSGSSTNYADSVKGRFTISRDNAKNTVYLQMNCLKPEDTAVYYCAADRWYITLSIDATISYDYWGQGTQVTVSS	low polyreactivity
QVQLVESGGGLDQAGGSLRLSCAASGSTIHRNAMGWYRQAPGKERELVAAITSGGSTNYADSVKGRFTISRDNAKNTVYLQMNSLKPEDTAVYYCDKDYRHYNRGWYDYWGQGTQVTVSS	low polyreactivity
QVQLVESGGGLDQAGGSLRLSCAASGSTLFPYAMGWYRQAPGKERELVAAISSRGGRTNYADSVKGRFTISRDNAKNTDYLQLYSLKPEDTAVYYCAAGDDYWGQGTEVTVSS	high polyreactivity
QVQLVESGGGLDQAGGSLRLSCAASGSTLSGNAMGWYRHAPGKERELVAAITSSGGRTYYADSVKGRFTISRDNAKNTVYLQMNSLKPEDTAVYYCAARSRLGRYTYDYCGQGTQVTVSS	high polyreactivity
QVQLVESGGGLDQAGGSLRLSCAASGYTFVGNAMGWYRQAPGKERELVAAISRSGGRTYYADSVKGRFTISRDNAKYTVYLQMNSLKPEDTAVYYCAKQPGSGPYYWGQGTQVTVSS	high polyreactivity
